Data set [1] addresses Murine NF-κB p50 (39-364) S65D (murine) (UniProt P25799). Nature of the data set: native MS; native IM-MS of p50 (39-364) WT and Ser to Asp variants, no DNA; 100 mM NH4OAc, typically 5 μM; percentage peak areas of monomer and dimer by multi-Gaussian fitting.
The target of data set [2] is p50 (35-381, Enzo Scientific) 35-381 (UniProt P19838). Nature of the data set: native nESI-MS, monomer:dimer, with κB DNA. The settings on record: reference: non-phosphorylated p50 plus DNA; sites S328,S337.
The target is the same in data set [3]. Nature of the data set: native nESI-MS, monomer:dimer ratio, no DNA. The conditions noted are these: reference: p50 before phosphorylation; sites S328,S337.
The target in data set [4] is Murine NF-κB p50 (39-364) S337D (murine) (UniProt P25799). As to the kind of experiment: SEC; size exclusion chromatography of p50 (39-364); monomer measured by protein staining and densitometry. On the technique in general: Size exclusion chromatography separates by hydrodynamic size, large species first.
Data set [5] shares this target. As to the kind of experiment: native MS; native IM-MS of p50 (39-364) WT and Ser to Asp variants, no DNA; 100 mM NH4OAc, typically 5 μM; percentage peak areas of monomer and dimer by multi-Gaussian fitting.
The target in data set [6] is Murine NF-κB p50 (39-364) S248D (murine) (UniProt P25799). Described as above.
Data set [7] deals with Murine NF-κB p50 (39-364) wild-type (murine) (UniProt P25799). The description is as above.
Data set [8] deals with Murine NF-κB p50 (39-364) S242D (murine) (UniProt P25799). The description is as above.
Data set [9] concerns the molecule itself. Nature of the data set: native MS; nano-ESI native MS of p50 (35-381) before and after in vitro phosphorylation with PKAc or Chk1; 100 mM NH4OAc, typically 5 μM; without and with the κB DNA oligomer; monomer and dimer charge states compared.
For data set [10], the target named is p50 S65D (Mus musculus, UniProt P25799 39-364, S63D). As to the kind of experiment: native MS titration; KD: 3 uM p50 with 0.2-6 uM DNA in 300 mM NH4OAc, 5 min, room temperature, 10 uL, pH not stated; native nESI-(IM-)MS. The settings on record: protein: recombinant; tags: His6-MBP removed by 3C protease; chain copies: 2; blunt; strand is self-complementary.
p50 S65D, sequence (P25799 39-364 S63D): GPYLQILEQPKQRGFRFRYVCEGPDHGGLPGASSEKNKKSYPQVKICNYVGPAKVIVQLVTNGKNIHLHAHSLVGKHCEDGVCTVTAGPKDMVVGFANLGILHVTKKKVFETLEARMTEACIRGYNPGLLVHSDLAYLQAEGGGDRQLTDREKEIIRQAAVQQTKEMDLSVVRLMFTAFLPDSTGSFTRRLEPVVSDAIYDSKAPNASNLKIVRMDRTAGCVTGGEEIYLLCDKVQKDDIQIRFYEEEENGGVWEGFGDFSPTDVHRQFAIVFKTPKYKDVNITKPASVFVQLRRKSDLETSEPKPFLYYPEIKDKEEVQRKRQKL
The target of data set [11] is p50 S242D (Mus musculus, UniProt P25799 39-364, S240D). The data set is described as above. The conditions noted are these: protein: recombinant; tags: His6-MBP removed by 3C protease; chain copies: 2; blunt; strand is self-complementary.
p50 S242D, sequence (P25799 39-364 S240D): as the sequence (P25799 39-364 S63D) above, with D25S, S202D counted along it
Data set [12] concerns the target p50 S248D (Mus musculus, UniProt P25799 39-364, S246D). Described as above. The conditions noted are these: protein: recombinant; tags: His6-MBP removed by 3C protease; chain copies: 2; blunt; strand is self-complementary.
The target of data set [13] is p50 WT (Mus musculus, UniProt P25799 39-364). The description is as above. The settings on record: protein: recombinant; tags: His6-MBP removed by 3C protease; chain copies: 2; blunt; strand is self-complementary.
p50 WT, sequence (P25799 39-364): as the sequence (P25799 39-364 S63D) above, with D25S counted along it
The target in data set [14] is p50 S337D (Mus musculus, UniProt P25799 39-364, S335D). Described as above. The conditions noted are these: protein: recombinant; tags: His6-MBP removed by 3C protease; chain copies: 2; blunt; strand is self-complementary.
p50 S337D, sequence (P25799 39-364 S335D): as the sequence (P25799 39-364 S63D) above, with D25S, S297D counted along it

p50 S248D, sequence (P25799 39-364 S246D): as the sequence (P25799 39-364 S63D) above, with D25S, S208D counted along it

The stoichiometry N is a count of units in the complex or per binding partner. As for “Murine NF-κB p50 (39-364) S65D (from UniProt P25799 39-364) (domain or fragment)”, in [1], the percentage peak area of dimer came out at 90.6%, the percentage peak area of monomer amounted to 9.4% and the stoichiometry N was 2.

For “p50 (35-381, Enzo Scientific) 35-381 (from UniProt P19838) PKAc-phosphorylated p50 plus DNA”, the “binding against the reference” value in data set [2] is given as “same”.

Regarding “p50 (35-381, Enzo Scientific) 35-381 (from UniProt P19838) PKAc-phosphorylated p50”, in [3], the “binding against the reference” value was “weaker”.

Consider “Murine NF-κB p50 (39-364) S337D (from UniProt P25799 39-364) (domain or fragment)”, for which the fold increase in monomer relative to WT p50 in data set [4] was found to be 5 fold. Also, in data set [5], the percentage peak area of dimer worked out at 74.8%, the percentage peak area of monomer was determined as 25.2% and the stoichiometry N stood at 2.

In data set [6], “Murine NF-κB p50 (39-364) S248D (from UniProt P25799 39-364) (domain or fragment)” yielded a percentage peak area of dimer of 94.2%, a percentage peak area of monomer of 5.8% and a stoichiometry N of 2.

With “Murine NF-κB p50 (39-364) wild-type (from UniProt P25799 39-364) (domain or fragment)”, in data set [7], the percentage peak area of dimer was 89.5%, the percentage peak area of monomer amounted to 10.5% and the stoichiometry N turned out to be 2.

For “Murine NF-κB p50 (39-364) S242D (from UniProt P25799 39-364) (domain or fragment)”, in data set [8], the percentage peak area of dimer worked out at 87.6%, the percentage peak area of monomer turned out to be 12.4% and the stoichiometry N was 2.

B1: NF-κB p50 (35-381), non-phosphorylated (domain or fragment, UniProt P19838 35-381, looked up)
chain: MALPTDGPYLQILEQPKQRGFRFRYVCEGPSHGGLPGASSEKNKKSYPQVKICNYVGPAKVIVQLVTNGKNIHLHAHSLVGKHCEDGICTVTAGPKDMVVGFANLGILHVTKKKVFETLEARMTEACIRGYNPGLLVHPDLAYLQAEGGGDRQLGDREKELIRQAALQQTKEMDLSVVRLMFTAFLPDSTGSFTRRLEPVVSDAIYDSKAPNASNLKIVRMDRTAGCVTGGEEIYLLCDKVQKDDIQIRFYEEEENGGVWEGFGDFSPTDVHRQFAIVFKTPKYKDINITKPASVFVQLRRKSDLETSEPKPFLYYPEIKDKEEVQRKRQKLMPNFSDSFGGGSGAG
notes: NF-κB p50, the proteolytic product of p105 (NF-κB1), residues 35-381; also called recombinant p50 (35-381); source: bought: Enzo Scientific
Turning to B1, the “stoichiometry N” value in data set [9] came out at 2.

B2: kB DNA oligomer (KD determination) (dsDNA)
DNA 1: CCCCCGGGGGCCCCCGGGGG
DNA 2: CCCCCGGGGGCCCCCGGGGG
Usually Kd stands for a measure of binding affinity in units of concentration. B2: the Kd in [10] was 140 ± 16 nM; in data set [11], 424 ± 78 nM; in data set [12] it was 112 ± 11 nM; in data set [13] it was 37 ± 7 nM; in [14], 111 ± 15 nM.

These data come from PMC6318249, “DNA Binding and Phosphorylation Regulate the Core Structure of the NF-κB p50 Transcription Factor” (Journal of the American Society for Mass Spectrometry, 2018).
